Results published in patent US20260015399A1 (Boehringer Ingelheim, published 2026).
*1 amine or outer side, *2 acyl side, *3 side chain or, on linkers, in order; H or OH if unused. Side-chain parts run from the residue outwards. The star is where a group is joined. C18 diacid = O=C(O)CCCCCCCCCCCCCCCCC(=O)*; γGlu = O=C(O)[C@H](CCC(=O)[*:2])N[*:1]; Isovaleryl = CC(C)CC(=O)*; Ahx = NCCCCCC(=O)O

T1: human NPY1 receptor (human, UniProt P25929 1-384)
T1 sequence (looked up): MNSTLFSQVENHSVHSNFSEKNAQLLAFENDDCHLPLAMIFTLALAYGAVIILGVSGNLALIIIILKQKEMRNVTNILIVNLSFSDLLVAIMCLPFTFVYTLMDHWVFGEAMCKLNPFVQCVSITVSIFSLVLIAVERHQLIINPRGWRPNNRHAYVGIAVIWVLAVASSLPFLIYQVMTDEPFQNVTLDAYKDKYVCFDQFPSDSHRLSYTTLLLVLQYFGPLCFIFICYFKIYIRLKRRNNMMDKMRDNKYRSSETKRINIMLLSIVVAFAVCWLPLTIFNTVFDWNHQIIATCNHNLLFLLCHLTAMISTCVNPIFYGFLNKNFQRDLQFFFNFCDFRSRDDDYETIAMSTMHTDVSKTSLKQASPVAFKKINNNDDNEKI

T2: human NPY5 receptor (human, UniProt Q15761 1-445)
T2 sequence (looked up): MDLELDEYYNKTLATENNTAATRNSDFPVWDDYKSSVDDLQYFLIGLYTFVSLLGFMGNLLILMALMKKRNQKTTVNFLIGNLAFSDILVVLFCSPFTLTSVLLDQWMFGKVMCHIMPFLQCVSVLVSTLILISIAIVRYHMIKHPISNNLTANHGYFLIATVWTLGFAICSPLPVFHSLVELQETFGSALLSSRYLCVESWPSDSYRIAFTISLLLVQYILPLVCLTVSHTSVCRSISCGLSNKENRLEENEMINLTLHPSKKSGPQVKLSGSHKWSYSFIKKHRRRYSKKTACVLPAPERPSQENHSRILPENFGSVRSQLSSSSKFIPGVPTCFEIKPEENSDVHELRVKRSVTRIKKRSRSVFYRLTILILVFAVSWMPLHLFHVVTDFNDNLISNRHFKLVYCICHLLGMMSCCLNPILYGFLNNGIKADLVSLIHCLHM

T3: human NPY2 receptor (human, UniProt P49146 1-381)
T3 construct: whole, on cells; also called hNPY2-R; hNPY2R
T3 sequence (looked up): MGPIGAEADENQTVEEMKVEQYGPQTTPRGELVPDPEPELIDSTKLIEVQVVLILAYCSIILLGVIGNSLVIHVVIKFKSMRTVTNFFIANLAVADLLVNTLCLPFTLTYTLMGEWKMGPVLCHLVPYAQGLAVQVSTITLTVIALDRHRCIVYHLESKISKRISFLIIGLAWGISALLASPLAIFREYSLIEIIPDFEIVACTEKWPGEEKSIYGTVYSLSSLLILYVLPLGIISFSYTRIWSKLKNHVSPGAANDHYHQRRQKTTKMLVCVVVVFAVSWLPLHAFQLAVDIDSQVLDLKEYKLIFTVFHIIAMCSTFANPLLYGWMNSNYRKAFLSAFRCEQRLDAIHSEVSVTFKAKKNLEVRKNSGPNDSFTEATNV


Legend:
human NPY1 receptor = target: T1, human NPY1 receptor; test: cell-based or functional assay
human NPY4 receptor = human NPY4 receptor (human, UniProt P50391 1-375); test: cell-based or functional assay
Sequence of human NPY4 receptor (P50391 whole entry): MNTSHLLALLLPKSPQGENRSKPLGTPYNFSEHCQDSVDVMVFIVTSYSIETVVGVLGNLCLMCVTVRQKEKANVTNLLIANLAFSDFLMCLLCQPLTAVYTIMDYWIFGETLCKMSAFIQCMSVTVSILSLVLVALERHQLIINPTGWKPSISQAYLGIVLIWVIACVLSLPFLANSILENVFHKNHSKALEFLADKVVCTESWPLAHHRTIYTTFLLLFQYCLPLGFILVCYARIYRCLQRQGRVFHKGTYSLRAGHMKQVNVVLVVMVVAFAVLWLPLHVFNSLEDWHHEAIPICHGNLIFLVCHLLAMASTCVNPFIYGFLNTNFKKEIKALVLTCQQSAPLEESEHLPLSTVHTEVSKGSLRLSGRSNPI

human NPY5 receptor = target: T2, human NPY5 receptor; test: cell-based or functional assay
human NPY2 receptor [1] = target: T3, human NPY2 receptor; test: RLB: displacement of 125I-PYY(1-36) from hNPY2R membranes
human NPY2 receptor [2] = target: T3, human NPY2 receptor; test: cell-based or functional assay

| EC50, HTRF cAMP Gi assay (human NPY1 receptor) [nM] | EC50, HTRF cAMP Gi assay (human NPY4 receptor) [nM] | EC50, HTRF cAMP Gi assay (human NPY5 receptor) [nM] | Ki (human NPY2 receptor [1]) [nM] | EC50, HTRF cAMP Gi assay (human NPY2 receptor [2]) [nM] | Binder |
| --- | --- | --- | --- | --- | --- |
| > 5000 | > 5000 | > 5000 | 2.73 |  | Isovaleryl-APEK([Ahx-γGlu-C18 diacid])PEAEASPEELQRYYVSLRHYYNWLTRQRY-NH2 [Compound 122] |
|  |  | > 5000 | 3.57 | 0.086 | Isovaleryl-APEK([Ahx-γGlu-C18 diacid])PEADASPEELQRYYVSLRHYYNWLTRQRY-NH2 (SMILES CC(C)CC(=O)N[C@@H](C)C(=O)N1CCC[C@H]1C(=O)N[C@@H](CCC(=O)O)C(=O)N[C@@H](CCCCNC(=O)CCCCCNC(=O)CC[C@H](NC(=O)CCCCCCCCCCCCCCCCC(=O)O)C(=O)O)C(=O)N1CCC[C@H]1C(=O)N[C@@H](CCC(=O)O)C(=O)N[C@@H](C)C(=O)N[C@@H](CC(=O)O)C(=O)N[C@@H](C)C(=O)N[C@@H](CO)C(=O)N1CCC[C@H]1C(=O)N[C@@H](CCC(=O)O)C(=O)N[C@@H](CCC(=O)O)C(=O)N[C@@H](CC(C)C)C(=O)N[C@@H](CCC(N)=O)C(=O)N[C@@H](CCCNC(=N)N)C(=O)N[C@@H](Cc1ccc(O)cc1)C(=O)N[C@@H](Cc1ccc(O)cc1)C(=O)N[C@H](C(=O)N[C@@H](CO)C(=O)N[C@@H](CC(C)C)C(=O)N[C@@H](CCCNC(=N)N)C(=O)N[C@@H](Cc1c[nH]cn1)C(=O)N[C@@H](Cc1ccc(O)cc1)C(=O)N[C@@H](Cc1ccc(O)cc1)C(=O)N[C@@H](CC(N)=O)C(=O)N[C@@H](Cc1c[nH]c2ccccc12)C(=O)N[C@@H](CC(C)C)C(=O)N[C@H](C(=O)N[C@@H](CCCNC(=N)N)C(=O)N[C@@H](CCC(N)=O)C(=O)N[C@@H](CCCNC(=N)N)C(=O)N[C@@H](Cc1ccc(O)cc1)C(N)=O)[C@@H](C)O)C(C)C) [Compound 196] |
|  |  | > 5000 | 18.8 | 0.447 | Isovaleryl-APEK([Ahx-γGlu-C18 diacid])AEEDASPEEIQRYYVSLRHYYNWLTRQRY-NH2 (SMILES CC[C@H](C)[C@H](NC(=O)[C@H](CCC(=O)O)NC(=O)[C@H](CCC(=O)O)NC(=O)[C@@H]1CCCN1C(=O)[C@H](CO)NC(=O)[C@H](C)NC(=O)[C@H](CC(=O)O)NC(=O)[C@H](CCC(=O)O)NC(=O)[C@H](CCC(=O)O)NC(=O)[C@H](C)NC(=O)[C@H](CCCCNC(=O)CCCCCNC(=O)CC[C@H](NC(=O)CCCCCCCCCCCCCCCCC(=O)O)C(=O)O)NC(=O)[C@H](CCC(=O)O)NC(=O)[C@@H]1CCCN1C(=O)[C@H](C)NC(=O)CC(C)C)C(=O)N[C@@H](CCC(N)=O)C(=O)N[C@@H](CCCNC(=N)N)C(=O)N[C@@H](Cc1ccc(O)cc1)C(=O)N[C@@H](Cc1ccc(O)cc1)C(=O)N[C@H](C(=O)N[C@@H](CO)C(=O)N[C@@H](CC(C)C)C(=O)N[C@@H](CCCNC(=N)N)C(=O)N[C@@H](Cc1c[nH]cn1)C(=O)N[C@@H](Cc1ccc(O)cc1)C(=O)N[C@@H](Cc1ccc(O)cc1)C(=O)N[C@@H](CC(N)=O)C(=O)N[C@@H](Cc1c[nH]c2ccccc12)C(=O)N[C@@H](CC(C)C)C(=O)N[C@H](C(=O)N[C@@H](CCCNC(=N)N)C(=O)N[C@@H](CCC(N)=O)C(=O)N[C@@H](CCCNC(=N)N)C(=O)N[C@@H](Cc1ccc(O)cc1)C(N)=O)[C@@H](C)O)C(C)C) [Compound 183] |
|  |  | > 5000 | 5.04 | 0.146 | Isovaleryl-APEK([Ahx-γGlu-C18 diacid])PEEDASPEEIQRYYVSLRHYYNWLTRQRY-NH2 (SMILES CC[C@H](C)[C@H](NC(=O)[C@H](CCC(=O)O)NC(=O)[C@H](CCC(=O)O)NC(=O)[C@@H]1CCCN1C(=O)[C@H](CO)NC(=O)[C@H](C)NC(=O)[C@H](CC(=O)O)NC(=O)[C@H](CCC(=O)O)NC(=O)[C@H](CCC(=O)O)NC(=O)[C@@H]1CCCN1C(=O)[C@H](CCCCNC(=O)CCCCCNC(=O)CC[C@H](NC(=O)CCCCCCCCCCCCCCCCC(=O)O)C(=O)O)NC(=O)[C@H](CCC(=O)O)NC(=O)[C@@H]1CCCN1C(=O)[C@H](C)NC(=O)CC(C)C)C(=O)N[C@@H](CCC(N)=O)C(=O)N[C@@H](CCCNC(=N)N)C(=O)N[C@@H](Cc1ccc(O)cc1)C(=O)N[C@@H](Cc1ccc(O)cc1)C(=O)N[C@H](C(=O)N[C@@H](CO)C(=O)N[C@@H](CC(C)C)C(=O)N[C@@H](CCCNC(=N)N)C(=O)N[C@@H](Cc1c[nH]cn1)C(=O)N[C@@H](Cc1ccc(O)cc1)C(=O)N[C@@H](Cc1ccc(O)cc1)C(=O)N[C@@H](CC(N)=O)C(=O)N[C@@H](Cc1c[nH]c2ccccc12)C(=O)N[C@@H](CC(C)C)C(=O)N[C@H](C(=O)N[C@@H](CCCNC(=N)N)C(=O)N[C@@H](CCC(N)=O)C(=O)N[C@@H](CCCNC(=N)N)C(=O)N[C@@H](Cc1ccc(O)cc1)C(N)=O)[C@@H](C)O)C(C)C) [Compound 147] |
|  |  | > 5000 | 0.81 | 0.079 | Isovaleryl-APEK([Ahx-γGlu-C18 diacid])PPEDASPEEIQRYYVSLRHYYNWLTRQRY-NH2 (SMILES CC[C@H](C)[C@H](NC(=O)[C@H](CCC(=O)O)NC(=O)[C@H](CCC(=O)O)NC(=O)[C@@H]1CCCN1C(=O)[C@H](CO)NC(=O)[C@H](C)NC(=O)[C@H](CC(=O)O)NC(=O)[C@H](CCC(=O)O)NC(=O)[C@@H]1CCCN1C(=O)[C@@H]1CCCN1C(=O)[C@H](CCCCNC(=O)CCCCCNC(=O)CC[C@H](NC(=O)CCCCCCCCCCCCCCCCC(=O)O)C(=O)O)NC(=O)[C@H](CCC(=O)O)NC(=O)[C@@H]1CCCN1C(=O)[C@H](C)NC(=O)CC(C)C)C(=O)N[C@@H](CCC(N)=O)C(=O)N[C@@H](CCCNC(=N)N)C(=O)N[C@@H](Cc1ccc(O)cc1)C(=O)N[C@@H](Cc1ccc(O)cc1)C(=O)N[C@H](C(=O)N[C@@H](CO)C(=O)N[C@@H](CC(C)C)C(=O)N[C@@H](CCCNC(=N)N)C(=O)N[C@@H](Cc1c[nH]cn1)C(=O)N[C@@H](Cc1ccc(O)cc1)C(=O)N[C@@H](Cc1ccc(O)cc1)C(=O)N[C@@H](CC(N)=O)C(=O)N[C@@H](Cc1c[nH]c2ccccc12)C(=O)N[C@@H](CC(C)C)C(=O)N[C@H](C(=O)N[C@@H](CCCNC(=N)N)C(=O)N[C@@H](CCC(N)=O)C(=O)N[C@@H](CCCNC(=N)N)C(=O)N[C@@H](Cc1ccc(O)cc1)C(N)=O)[C@@H](C)O)C(C)C) [Compound 172] |
|  |  | > 5000 | 8.93 | 0.13 | Isovaleryl-APEK([Ahx-γGlu-C18 diacid])PEEEATPEELQRYYVSLRHYYNWLTRQRY-NH2 (SMILES CC(C)CC(=O)N[C@@H](C)C(=O)N1CCC[C@H]1C(=O)N[C@@H](CCC(=O)O)C(=O)N[C@@H](CCCCNC(=O)CCCCCNC(=O)CC[C@H](NC(=O)CCCCCCCCCCCCCCCCC(=O)O)C(=O)O)C(=O)N1CCC[C@H]1C(=O)N[C@@H](CCC(=O)O)C(=O)N[C@@H](CCC(=O)O)C(=O)N[C@@H](CCC(=O)O)C(=O)N[C@@H](C)C(=O)N[C@H](C(=O)N1CCC[C@H]1C(=O)N[C@@H](CCC(=O)O)C(=O)N[C@@H](CCC(=O)O)C(=O)N[C@@H](CC(C)C)C(=O)N[C@@H](CCC(N)=O)C(=O)N[C@@H](CCCNC(=N)N)C(=O)N[C@@H](Cc1ccc(O)cc1)C(=O)N[C@@H](Cc1ccc(O)cc1)C(=O)N[C@H](C(=O)N[C@@H](CO)C(=O)N[C@@H](CC(C)C)C(=O)N[C@@H](CCCNC(=N)N)C(=O)N[C@@H](Cc1c[nH]cn1)C(=O)N[C@@H](Cc1ccc(O)cc1)C(=O)N[C@@H](Cc1ccc(O)cc1)C(=O)N[C@@H](CC(N)=O)C(=O)N[C@@H](Cc1c[nH]c2ccccc12)C(=O)N[C@@H](CC(C)C)C(=O)N[C@H](C(=O)N[C@@H](CCCNC(=N)N)C(=O)N[C@@H](CCC(N)=O)C(=O)N[C@@H](CCCNC(=N)N)C(=O)N[C@@H](Cc1ccc(O)cc1)C(N)=O)[C@@H](C)O)C(C)C)[C@@H](C)O) [Compound 146] |
